The source of these data is paper PMC6457526, “Structure-based molecular characterization and regulatory mechanism of the LftR transcription factor from Listeria monocytogenes: Conformational flexibilities and a ligand-induced regulatory mechanism” (PLoS ONE, 2019).

As usually defined, the Kd is a measure of binding affinity in units of concentration. In general, stoichiometry N refers to the number of molecules, sites or subunits per partner or assembly.

Data set [1] addresses T1, LftR (Listeria monocytogenes, UniProt L8DXR9).
T1 construct: full length, 108 residues, expressed in E. coli; homodimer
Description: fluorescence polarization assay. Format: binding. Background: In fluorescence polarisation assays a small probe gives low polarisation when free and higher when bound to something large.

Data set [2] has as its target LftR L69A (Listeria monocytogenes, UniProt Q8Y923 1-108, L69A). Description: fluorescence polarization; FP: 28-mer OP-1 with 5' fluorescein, ex 485 nm / em 535 nm, single-site fit (Prism 5); buffer, salt, pH and temperature of FP and EMSA not given in the material. Particulars: protein: recombinant; tags: C-terminal His6; chain copies: 2; label: 5' fluorescein on top strand.

Data set [3] has as its target LftR K56A (Listeria monocytogenes, UniProt Q8Y923 1-108, K56A). The data set is described as above. Particulars: protein: recombinant; tags: C-terminal His6; chain copies: 2; label: 5' fluorescein on top strand.
Data set [4] deals with LftR Y28A (Listeria monocytogenes, UniProt Q8Y923 1-108, Y28A). The data set is described as above. The conditions noted are these: protein: recombinant; tags: C-terminal His6; chain copies: 2; label: 5' fluorescein on top strand.
In data set [5] the target is LftR wildtype (Listeria monocytogenes, UniProt Q8Y923 1-108). The description is as above. The conditions noted are these: protein: recombinant; tags: C-terminal His6 (LftRCtH); chain copies: 2; label: 5' fluorescein on top strand.
The target in data set [6] is LftR K9A (Listeria monocytogenes, UniProt Q8Y923 1-108, K9A). The data set is described as above. Particulars: protein: recombinant; tags: C-terminal His6; chain copies: 2; label: 5' fluorescein on top strand.
The target of data set [7] is LftR R53A (Listeria monocytogenes, UniProt Q8Y923 1-108, R53A). The data set is described as above. The conditions noted are these: protein: recombinant; tags: C-terminal His6; chain copies: 2; label: 5' fluorescein on top strand.
Data set [8] deals with the molecule itself. Description: SEC; Superdex 200 10/300, 20 mM HEPES pH 7.4, 150 mM NaCl; apparent molecular weight from gel filtration standards. Background: SEC sorts molecules by how far they enter the pores of the column.

On to `CC[n+]1c(-c2ccccc2)c2cc(N)ccc2c2ccc(N)cc21` [ethidium bromide], for which, in data set [1], the affinity, expressed as Kd, was 3700 ± 1170 nM.

B1: OP-1 28-mer dsDNA (FP) (dsDNA)
DNA 1: GTATTACTATATACTTGTACCTAGTAAC
DNA 2: GTTACTAGGTACAAGTATATAGTAATAC
As to B1, the Kd in data set [2] was 62.6 ± 1.3 nM; in data set [3], 28.7 ± 2.3 nM; in data set [4], 89.6 ± 1.9 nM; in data set [5], 6.2 ± 1.5 nM; in data set [6], 197 ± 12.1 nM; in data set [7], 40.1 ± 0.8 nM.

B2: LftRCtH, LftR with a C-terminal His6 tag (natural protein)
chain: MKGLTELLKGSLEGMILERISRGETYGYEITKYLNDLGFDEIVEGTVYTILVRLEKKGLVEIEKKKSELGPPRKFYTLSPAGEEELAIFWKRWDFIQGKIMQVKGGQA
notes: LftR, PadR-2 subfamily transcription factor of Listeria monocytogenes, encoded by lmo0719; 108 residues; Cloned NdeI/XmaI into a modified pET49b vector with a C-terminal His6 tag; source: E. coli BL21 (DE3), purified (Ni-NTA); not shown: His6, C-terminal, kept
With B2, the “stoichiometry N” value in data set [8] amounted to 2.

B3: LftR_(ΔNtH), tag-free LftR protein after thrombin removal of the N-terminal His6 tag (natural protein)
chain: GSAKDPMKGLTELLKGSLEGMILERISRGETYGYEITKYLNDLGFDEIVEGTVYTILVRLEKKGLVEIEKKKSELGPPRKFYTLSPAGEEELAIFWKRWDFIQGKIMQVKGGQA
notes: six additional vector-derived amino acids left at the N-terminus after thrombin cleavage (numbered -5 to 0 in the structure); LftR, PadR-2 subfamily transcription factor of Listeria monocytogenes, encoded by lmo0719; 108 residues; Expressed from a modified pET49b vector with N-terminal His6 tag and thrombin site; also called Listeria protein facilitating invasion/transcriptional regulator; …
Consider B3, for which the “stoichiometry N” value in data set [8] was 2.
